Values joined by “and” are separate entries in the source; they are usually repeats but may differ in a detail not shown here. Equal values may be shown once.
B1: LDL receptor (LDLR) on human glioblastoma multiforme cells (receptor)
chain: not shown
notes: whole, on cells; also called cell surface LDLR
B2: synthetic LDL containing paclitaxel oleate (sLDL-PO) (peptide)
peptide: Ac-DWLKAFYDKVAEKLKEAFRLTRKRGLKLA-NH2
modifications: also: sLDL particle with paclitaxel oleate in lipid core, not covalently bound

What was measured:
[1] = target: T1, native plasma LDL (low density lipoprotein; LDLR ligand apoB100 on its surface) (human, UniProt P04114 28-4563); assay: ^125I-LDL saturation binding to SF-767 cells
T1 construct: Lipoprotein particle isolated from plasma; also called native LDL

[2] = target: T1, native plasma LDL (low density …); assay: ^125I-LDL saturation binding to SF-763 cells
[3] = target: T1, native plasma LDL (low density …); assay: ^125I-LDL saturation binding to A-172 cells
[4] = target: T1, native plasma LDL (low density …); assay: ^125I-LDL saturation binding to SF-539 cells
[5] = target: T1, native plasma LDL (low density …); assay: ^125I-LDL saturation binding to U-343 MG cells
[6] = target: T1, native plasma LDL (low density …); assay: ^125I-LDL saturation binding to U-251 MG cells (average of 2 experiments)
[7] = target: B1; assay: cell-based or functional assay

T1 sequence (P04114 28-4563 limits assumed): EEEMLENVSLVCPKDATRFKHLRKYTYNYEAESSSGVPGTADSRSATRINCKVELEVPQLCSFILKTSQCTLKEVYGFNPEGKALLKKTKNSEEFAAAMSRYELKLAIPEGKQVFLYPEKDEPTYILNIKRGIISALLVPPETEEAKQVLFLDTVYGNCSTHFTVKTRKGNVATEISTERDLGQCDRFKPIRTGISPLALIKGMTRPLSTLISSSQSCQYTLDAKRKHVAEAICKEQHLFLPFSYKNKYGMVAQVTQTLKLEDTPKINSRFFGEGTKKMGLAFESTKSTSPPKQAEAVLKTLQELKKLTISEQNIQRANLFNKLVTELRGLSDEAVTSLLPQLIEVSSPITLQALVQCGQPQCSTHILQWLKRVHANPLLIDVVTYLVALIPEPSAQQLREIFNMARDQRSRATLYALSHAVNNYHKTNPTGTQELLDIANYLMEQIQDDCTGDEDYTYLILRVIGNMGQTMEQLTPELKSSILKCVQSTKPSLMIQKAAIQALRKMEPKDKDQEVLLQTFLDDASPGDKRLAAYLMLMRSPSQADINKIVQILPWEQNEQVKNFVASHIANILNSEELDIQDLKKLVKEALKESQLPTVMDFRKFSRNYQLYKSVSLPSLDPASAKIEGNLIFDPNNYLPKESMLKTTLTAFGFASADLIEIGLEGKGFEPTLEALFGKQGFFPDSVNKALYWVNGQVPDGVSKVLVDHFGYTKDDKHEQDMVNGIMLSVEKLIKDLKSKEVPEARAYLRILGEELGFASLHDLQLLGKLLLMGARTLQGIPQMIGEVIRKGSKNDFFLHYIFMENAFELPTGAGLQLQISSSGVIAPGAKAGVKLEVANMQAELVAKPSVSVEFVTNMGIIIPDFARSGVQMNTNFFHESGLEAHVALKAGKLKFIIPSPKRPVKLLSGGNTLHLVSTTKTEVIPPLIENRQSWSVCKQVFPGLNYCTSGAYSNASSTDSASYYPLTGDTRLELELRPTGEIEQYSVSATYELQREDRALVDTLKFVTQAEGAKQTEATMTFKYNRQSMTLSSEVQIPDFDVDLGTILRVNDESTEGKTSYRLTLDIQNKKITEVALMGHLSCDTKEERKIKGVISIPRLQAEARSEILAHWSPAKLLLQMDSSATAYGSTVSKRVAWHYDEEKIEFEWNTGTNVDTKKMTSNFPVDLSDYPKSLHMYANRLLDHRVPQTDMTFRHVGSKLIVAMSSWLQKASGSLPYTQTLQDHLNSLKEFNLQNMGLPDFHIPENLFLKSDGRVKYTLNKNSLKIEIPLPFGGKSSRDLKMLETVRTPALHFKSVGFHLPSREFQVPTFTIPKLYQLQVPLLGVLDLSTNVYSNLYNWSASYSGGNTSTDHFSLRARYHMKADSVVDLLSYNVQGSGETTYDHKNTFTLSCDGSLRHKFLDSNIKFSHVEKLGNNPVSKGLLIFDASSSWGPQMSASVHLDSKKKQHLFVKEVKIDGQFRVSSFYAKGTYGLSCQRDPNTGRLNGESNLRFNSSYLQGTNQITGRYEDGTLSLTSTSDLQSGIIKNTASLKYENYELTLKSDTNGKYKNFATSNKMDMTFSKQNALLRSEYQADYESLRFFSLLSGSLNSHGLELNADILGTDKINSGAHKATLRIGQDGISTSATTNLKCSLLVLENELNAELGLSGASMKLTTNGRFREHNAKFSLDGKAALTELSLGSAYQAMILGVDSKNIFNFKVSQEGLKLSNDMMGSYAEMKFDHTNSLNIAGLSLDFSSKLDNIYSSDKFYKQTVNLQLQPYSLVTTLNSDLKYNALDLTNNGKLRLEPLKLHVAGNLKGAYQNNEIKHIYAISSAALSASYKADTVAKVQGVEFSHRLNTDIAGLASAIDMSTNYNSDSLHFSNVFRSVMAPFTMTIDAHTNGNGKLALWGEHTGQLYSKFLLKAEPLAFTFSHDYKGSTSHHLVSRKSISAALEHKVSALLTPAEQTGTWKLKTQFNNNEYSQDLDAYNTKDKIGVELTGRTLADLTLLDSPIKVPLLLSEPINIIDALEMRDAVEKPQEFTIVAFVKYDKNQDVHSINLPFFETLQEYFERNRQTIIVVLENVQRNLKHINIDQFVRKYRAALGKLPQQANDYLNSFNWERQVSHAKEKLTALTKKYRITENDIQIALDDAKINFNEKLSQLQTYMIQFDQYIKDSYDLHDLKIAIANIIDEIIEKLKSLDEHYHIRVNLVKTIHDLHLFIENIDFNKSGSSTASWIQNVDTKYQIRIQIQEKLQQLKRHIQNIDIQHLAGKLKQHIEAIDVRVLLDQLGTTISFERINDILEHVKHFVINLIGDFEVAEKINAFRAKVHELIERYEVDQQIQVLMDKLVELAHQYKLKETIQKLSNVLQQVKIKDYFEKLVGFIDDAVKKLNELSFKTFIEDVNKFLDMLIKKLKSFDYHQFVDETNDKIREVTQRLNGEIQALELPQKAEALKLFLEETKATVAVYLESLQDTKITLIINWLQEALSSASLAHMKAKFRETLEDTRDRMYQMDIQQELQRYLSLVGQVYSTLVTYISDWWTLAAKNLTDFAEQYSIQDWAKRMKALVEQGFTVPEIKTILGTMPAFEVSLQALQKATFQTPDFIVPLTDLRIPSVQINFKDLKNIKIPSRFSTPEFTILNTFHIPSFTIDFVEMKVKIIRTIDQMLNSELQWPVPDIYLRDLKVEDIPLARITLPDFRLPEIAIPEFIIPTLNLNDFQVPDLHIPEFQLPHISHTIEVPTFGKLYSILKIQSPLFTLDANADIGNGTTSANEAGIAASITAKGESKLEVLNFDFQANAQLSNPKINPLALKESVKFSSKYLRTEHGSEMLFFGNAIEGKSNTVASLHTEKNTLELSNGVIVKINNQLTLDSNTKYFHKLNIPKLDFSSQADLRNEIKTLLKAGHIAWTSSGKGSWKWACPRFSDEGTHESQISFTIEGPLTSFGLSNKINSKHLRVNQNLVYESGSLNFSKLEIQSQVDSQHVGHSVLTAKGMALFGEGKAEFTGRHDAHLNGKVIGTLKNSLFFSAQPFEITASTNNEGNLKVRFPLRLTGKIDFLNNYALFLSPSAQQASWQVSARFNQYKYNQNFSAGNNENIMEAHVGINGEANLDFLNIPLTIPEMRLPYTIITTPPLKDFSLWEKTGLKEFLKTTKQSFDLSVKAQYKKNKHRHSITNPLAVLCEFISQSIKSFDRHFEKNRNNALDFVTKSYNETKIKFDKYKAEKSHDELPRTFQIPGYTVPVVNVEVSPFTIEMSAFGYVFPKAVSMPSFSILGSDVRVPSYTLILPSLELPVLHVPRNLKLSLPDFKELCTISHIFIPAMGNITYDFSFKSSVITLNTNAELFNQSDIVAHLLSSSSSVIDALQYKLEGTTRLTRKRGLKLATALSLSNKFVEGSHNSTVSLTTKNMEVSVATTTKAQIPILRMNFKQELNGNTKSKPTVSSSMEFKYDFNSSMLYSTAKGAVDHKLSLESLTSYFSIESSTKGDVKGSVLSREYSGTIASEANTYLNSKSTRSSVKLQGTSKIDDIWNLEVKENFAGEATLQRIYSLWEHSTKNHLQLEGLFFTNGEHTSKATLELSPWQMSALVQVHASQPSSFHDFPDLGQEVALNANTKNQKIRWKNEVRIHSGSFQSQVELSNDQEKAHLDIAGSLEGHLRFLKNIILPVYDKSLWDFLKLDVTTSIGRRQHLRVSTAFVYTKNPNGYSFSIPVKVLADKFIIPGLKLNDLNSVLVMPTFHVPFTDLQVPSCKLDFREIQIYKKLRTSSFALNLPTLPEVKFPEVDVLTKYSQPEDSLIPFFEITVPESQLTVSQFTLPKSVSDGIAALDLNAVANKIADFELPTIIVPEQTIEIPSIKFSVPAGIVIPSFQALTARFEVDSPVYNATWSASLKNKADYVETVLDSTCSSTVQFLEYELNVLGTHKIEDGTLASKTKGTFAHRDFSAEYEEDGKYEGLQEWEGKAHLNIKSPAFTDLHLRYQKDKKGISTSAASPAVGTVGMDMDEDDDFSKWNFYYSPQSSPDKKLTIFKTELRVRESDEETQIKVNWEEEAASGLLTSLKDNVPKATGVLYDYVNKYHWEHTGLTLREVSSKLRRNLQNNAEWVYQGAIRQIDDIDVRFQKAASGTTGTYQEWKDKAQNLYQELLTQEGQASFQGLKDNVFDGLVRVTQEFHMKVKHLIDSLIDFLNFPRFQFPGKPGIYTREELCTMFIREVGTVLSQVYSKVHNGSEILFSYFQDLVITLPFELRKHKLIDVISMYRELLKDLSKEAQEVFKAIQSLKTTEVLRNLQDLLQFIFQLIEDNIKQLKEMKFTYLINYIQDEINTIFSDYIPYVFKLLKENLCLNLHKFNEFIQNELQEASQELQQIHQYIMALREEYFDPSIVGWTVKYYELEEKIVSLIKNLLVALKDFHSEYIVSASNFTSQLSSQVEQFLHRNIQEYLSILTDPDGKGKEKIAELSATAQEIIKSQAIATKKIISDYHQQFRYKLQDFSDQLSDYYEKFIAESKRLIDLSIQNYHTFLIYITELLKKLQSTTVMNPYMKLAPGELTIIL

| Binder | Kd [1] | Kd [2] | Kd [3] | Kd [4] | Kd [5] | Kd [6] | IC50 of SF-763 cell killing, 6 hrs incubation with sLDL-PO, 72 hr total [7] [µM] | IC50 of SF-767 cell killing, 1 hr incubation with sLDL-PO, 72 hr total [7] [µM] | IC50 of SF-767 cell killing, 3 hr incubation with sLDL-PO, 72 hr total [7] [µM] | IC50 of SF-767 cell killing, 6 hr incubation with sLDL-PO, 72 hr total [7] [µM] | IC50 of SF-767 cell killing, 6 hrs incubation with sLDL-PO, 72 hr total [7] [µM] | IC50 of SF-767 cell killing, 12 hr incubation with sLDL-PO, 72 hr total [7] [µM] | IC50 of U-251 cell killing, 6 hrs incubation with sLDL-PO, 72 hr total [7] [µM] |
| --- | --- | --- | --- | --- | --- | --- | --- | --- | --- | --- | --- | --- | --- |
| B1 | 3.5 µg/mL and 6.98 nM | 60 µg/mL and 120 nM | 62 µg/mL and 124 nM | 50 µg/mL and 100 nM | 40 µg/mL and 80 nM | 38 µg/mL and 76 nM |  |  |  |  |  |  |  |
| B2 |  |  |  |  |  |  | 2 | 20 | 15 | 10 | 7 | 10 | 7 |
